The source of these data is patent publication US20100151496A1.

The target in the assay is TRAP-220-EA-Nuc fusion protein. Description: cell-based or functional assay.

“ERRα (estrogen-related receptor α) fused to the small β-galactosidase fragment (NHR-PK fusion), expressed in CHO cells” yielded an EC50 of the small-molecule inverse agonist XCT790 for loss of the β-galactosidase complementation signal (ERRα fusion with coactivator-EA fusion) in CHO cells of 300 nM and a S/B (signal/background) of β-galactosidase enzyme fragment complementation in CHO cells; loss of signal with the inverse agonist XCT790 of 3 fold.
